Reference: US20220154204A1, “ENHANCING DROUGHT, SALINITY AND COLD TOLERANCE IN PLANTS AND TREES” (The Regents of the University of California, priority 2019, published 2022)

T1: OST1/SnRK2.6 (Arabidopsis thaliana, UniProt Q940H6)
T1 construct: made in house; host or cells: E. coli
T1 sequence (Q940H6 1-362): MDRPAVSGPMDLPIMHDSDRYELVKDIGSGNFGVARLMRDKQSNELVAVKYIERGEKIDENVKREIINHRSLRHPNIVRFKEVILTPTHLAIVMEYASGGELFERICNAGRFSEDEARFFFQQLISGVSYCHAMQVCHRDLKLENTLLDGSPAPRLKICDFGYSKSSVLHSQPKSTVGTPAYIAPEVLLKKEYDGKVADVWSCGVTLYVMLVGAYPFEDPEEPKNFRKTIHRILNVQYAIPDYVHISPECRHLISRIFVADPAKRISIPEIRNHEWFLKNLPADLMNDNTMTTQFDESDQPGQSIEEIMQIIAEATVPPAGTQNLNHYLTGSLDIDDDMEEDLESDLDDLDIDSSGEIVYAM


Biological target: T1, OST1/SnRK2.6
Assay: In vitro phosphorylation assay of CIAP-dephosphorylated GST-OST1/SnRK2.6 with other protein kinases
Type: biochemical
Conditions: GST-OST1/SnRK2.6 dephosphorylated by CIAP, [γ-32P]-ATP
Method: We investigated phosphorylation of purified recombinant GST-tagged OST1/SnRK2.6 protein kinase after dephosphorylation in vitro. To test whether OST1/SnRK2.6 could be re-activated by autophosphorylation, after dephosphorylation, the GST-OST1/SnRK2.6 protein bound on glutathione sepharose 4B resin was incubated with calf intestinal alkaline phosphatase (CIAP), and [γ-^32P]-ATP was added to the reaction after wash out of CIAP. […] Therefore, another unknown protein kinase may be required for reversible ABA signal transduction.
10 μg GST-OST1/SnRK2.6 proteins were bound to glutathione sepharose 4B beads and incubated with 30 U CIAP for 2 hr at room temperature. […]
a, Seeds of amiR-HsMYO wild-type (control line) or amiR-ax1117 mutant were sowed on ½ MS medium containing 2 μM ABA, or 0.02% EtOH as control, for germination assays. Representative images showing seed germination after 6 days. b, The percentage of seedlings showing green cotyledons was analyzed. […] In-gel kinase assays were performed using histone type III-S as a substrate. e, SnRK2 band intensities as shown in (d) were measured using ImageJ, n=3 experiments, error bars show +/−s.e.m. f, Recombinant GST-OST1/SnRK2.6 protein was dephosphorylated by alkaline phosphatase in vitro and used for in vitro phosphorylation assays after incubation with CPK6, CPK23 or MPK12 protein kinases. […]

phosphorylation of OST1/SnRK2.6 after dephosphorylation	Molecule
did not phosphorylate	CPKδ: calcium-dependent protein kinase of ABA signalling (protein, UniProt Q38872 2-544, looked up) Calcium-dependent protein …: GNSCRGSFKDKIYEGNHSRPEENSKSTTTTVSSVHSPTTDQDFSKQNTNPALVIPVKEPIMRRNVDNQSYYVLGHKTPNIRDLYTLSRKLGQGQFGTTYLCTDIATGVDYACKSISKRKLISKEDVEDVRREIQIMHHLAGHKNIVTIKGAYEDPLYVHIVMELCAGGELFDRIIHRGHYSERKAAELTKIIVGVVEACHSLGVMHRDLKPENFLLVNKDDDFSLKAIDFGLSVFFKPGQIFKDVVGSPYYVAPEVLLKHYGPEADVWTAGVILYILLSGVPPFWAETQQGIFDAVLKGYIDFDTDPWPVISDSAKDLIRKMLCSSPSERLTAHEVLRHPWICENGVAPDRALDPAVLSRLKQFSAMNKLKKMALKVIAESLSEEEIAGLRAMFEAMDTDNSGAITFDELKAGLRRYGSTLKDTEIRDLMEAADVDNSGTIDYSEFIAATIHLNKLEREEHLVSAFQYFDKDGSGYITIDELQQSCIEHGMTDVFLEDIIKEVDQDNDGRIDYEEFVAMMQKGNAGVGRRTMKNSLNISMRDV
did not phosphorylate	MPK12: MAP kinase of ABA signalling (protein) MSGESSSGSTEHCIKVVPTHGGRYVQYNVYGQLFEVSRKYVPPIRPIGRGACGIVCAAVNSVTGEKVAIKKIGNAFDNIIDAKRTLREIKLLRHMDHENVITIKDIVRPPQRDIFNDVYIVYELMDTDLQRILRSNQTLTSDQCRFLVYQLLRGLKYVHSANILHRDLRPSNVLLNSKNELKIGDFGLARTTSDTDFMTEYVVTRWYRAPELLLNCSEYTAAIDIWSVGCILGEIMTGQPLFPGKDYVHQLRLITELVGSPDNSSLGFLRSDNARRYVRQLPRYPKQQFAARFPKMPTTAIDLLERMLVFDPNRRISVDEALGHAYLSPHHDVAKEPVCSTPFSFDFEHPSCTEEHIKELIYKESVKFNPDH
